Data reported in the supplement of paper PMC12764529.
± gives the half width of the 95% confidence interval.

Experiment: folding stability dG unfold from chymotrypsin proteolysis; higher = more stable
How it was run: (§1)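 Only designs with AlphaFold2 dimer inter-PAE above 15 were retained; each was a mini-protein under 80 residues with no cysteine, in a PA-tagged cDNA display construct. After digestion with trypsin and chymotrypsin and sequencing, K50 was inferred by Bayesian fitting of counts, and unfolding free energy was derived per protease or combined against a sequence-predicted unfolded-state K50 and a shared folded-state K50.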

Sequence	folding stability dG unfold [kcal/mol]
SAGGSMKTITDPGNLSEEEIKKILSKFPPNTTVTIEFPDATHTVTLNPDKIEISRDPSYPNFRITITISSAG [r5_373_JUSTAS]	2.01 ± 0.036
SAGGSAGGLGWGSFKLPFEFWDPANGMPMRNSINIMVIVIPPPPPKVEVEEDPDNGKKKVTYDDSAGGSAGG [r6_926_TrROS]	3.31 ± 0.084
SAGGSAGGSPIEEIVAELKVPPGTTVKFPDGSTITLNSREDLLKLAKEGYPPEKLKDITVEAVSAGGSAGGS [r12_430_JUSTAS]	1.08 ± 0.059
SAGGMLLKLPLSSVEIPPDASEEEIEEAKRKLAKPKVVKVTEEVLIEENGIVKKVKVTKYVSLSVEESAGGS [r16_387_JUSTAS]	0.56 ± 0.29
SAGGSAMKEIEINGYKVRIVKIDEKTGKITIYLYPNASEEMKEKVAELLKELGFEIEVEEVSPEELSAGGSA [r15_570_TrROS_Hall]	3.53 ± 0.14
SAGGSAGGSAMKLEVFPVPDGQIAVFEDADGNIRVIGVPEPNLSISDIAKIALDLGADSVELSAGGSAGGSA [r18_83_TrMRF]	-0.45 ± 0.21
SAGGMIRITTEDGEELSEEELAELEEAIRKGDLDEAVKKIEELLRERFGKEIKIKVEVFFPPPPPPESAGGS [r8_48_TrROS_Hall]	3.26 ± 0.092
SAGGGPVTEETYTIKRPDGTELVVTRYYFPGTGETVVRIYPPSTKTPLSTVPLSEASPELLAEIARRSAGGS [r8_32_JUSTAS]	2.108 ± 0.013
SAGGSAGGSMGVTVTSEEDPEVRRVRETIETPSGSVVERDMVLTRPPDGPLLREALSEKVFRPSAGGSAGGS [r12_758_JUSTAS]	-1.18 ± 0.48
SAGGPKLFVEEDPVEDGVVVVVETNADPVALLKALEKLFGRPVKDVRFERLPDGRLIAVARIPKDALSAGGS [r16_605_TrMRF]	2.676 ± 0.016
SAGGSAGGSAGGLPDREILEVRVLNPEREETGLRVRVEVVLPDGPVTIELPAEEVKELASAGGSAGGSAGGS [r10_771_TrMRF]	1.03 ± 0.024
SAGGSMTTTTVTVTDPAGNTTTYTFPSSVPLEEIVEAVSKALGRPVTVLSVTTDPSGTTTVTLAVPGSAGGS [r8_285_JUSTAS]	5.131 ± 0.047
SAGMKYTFKILVKADSPEEAIETAKKLVEKWLKENFPELPEGVKIKEIKVEPLPDDYYLVTITVEFDPESAG [r5_320_TrMRF]	5.51 ± 0.091
SAGGSAGGSEEILKALGVEPGDEVEIEMTPEELEELLALPGVEPVRVEERPDGRLRVRIRILPSAGGSAGGS [r12_750_TrROS_Hall]	2.93 ± 0.077
SMKIEFLDVKEDGTIVIRLTLLRPDGKPPTKEEAAERAKEIAEILKPYFPDAEFTIEFDPESGEATIVIDSA [r9_485_TrMRF]	4.7 ± 0.15
SAGGSDSLVTLERVEVTELEEFEEDDRPFLVKRTYTIEKVVTTDPKTGKVTTETTVTSKEEVIPPELNSAGG [r13_810_JUSTAS]	0.801 ± 0.18

Experiment: folding stability dG unfold (combined trypsin and chymotrypsin); higher = more stable
How it was run: as §1

Sequence	folding stability dG unfold [kcal/mol]
SAGGEKVKRVLVRDKKTKEWREVEVKEAKVEPPPVITIKIELSEEEAKKLAELLRKLFPDAKVTVVKSAGGS [r8_437_TrROS_Hall]	3.98 ± 0.31
SAMKVTIEPLEDGSTVITLDDGTEITFSAPGSGAPILAKVTPLPNTGVVRVDIYHPEGGKLLAPLVVPLSAG [r14_975_TrMRF]	0.734 ± 0.053
SAGGSAGGSAGGVKPGDFVLIKLTLTEKYYDPETGELIEEKEVELTILIPKGTSLEELKLSAGGSAGGSAGG [r7_591_TrROS_Hall]	2.17 ± 0.25
SAGGSAGGSMELDEDGRLIVRIKVRDKETKEWKEIEIELPGLTEEEIRKLAEELGAEEIEILPSAGGSAGGS [r12_792_TrROS_Hall]	2.43 ± 0.078
SAGMEVEILGAEVDPETGVVKVVAVGRDPVTGVLVVDEITIKGDTVEIRREVYFPNTGKKAETTATIPLSAG [r5_150_TrMRF]	1.55 ± 0.12
SAGGSAGGSAGGKKVYKVPSLEEALELAKKNKGKTVEIEVDGKKYKFNKNGKIVEIEPVKSAGGSAGGSAGG [r7_532_TrROS_Hall]	2.14 ± 0.12
SAGGSAGGSAGGSAPPKVEIEVTVLVKDEDGRLYVFKAKATFDLETNELTVEVEVYELPSAGGSAGGSAGGS [r4_445_TrROS_Hall]	4.66 ± 0.35
SAETKAEVFRFGDVLVVVTEERVTTPDGSERPVYTVTLLVYDPSTGKWTPFSRPFSSKEDAAKALSSGVSAG [r14_500_TrMRF]	1.98 ± 0.15
SAGGDPLVLEFDGVTVVYDPKTKTLVVFAPSSEVERLVKALGPKFEPLEIFELEDGSVVMLVRIKPESAGGS [r8_415_TrMRF]	4.35 ± 0.13
SAGGSAMKITLKPDGTLEIELPDGVKITITRNANGEVTITITYPDGETKTFPAGMTLEQVLAELLASAGGSA [r15_371_TrROS_Hall]	3.42 ± 0.051
SAGGKKYKVIKEIEITLENGKKIKIKLIEYNEKTNEYILEITYPDGKKITITVPKGMSIEEALKKLLSSAGG [r13_470_TrROS_Hall]	2.41 ± 0.12
SAGGSAGGSIPEILKKIGISPEVVTEVEVTPVEKLPDSLVVKVTYTYKLPNGTTETKTVTVPIGSAGGSAGG [r6_776_JUSTAS]	2.66 ± 0.13
SAGGETVTTESYQPLPTGPGLSFKNVVTTEEDVNNPGVKYTTTEVTAELVNPEGDESTTTTSTVTAASAGGS [r16_217_JUSTAS]	0.112 ± 0.14
SHTTTEPATGVTVEVVPSPDGTHVVTVKKPGGEVVKTVTVPSGPRPPGSTTPLTVALTDLPPDVETSVDLSS [r1_263_JUSTAS]	0.232 ± 0.2
SAGGSAGGSAGGGSMTTTTLTFTVPPDVTPEEVRAALEAAGYGDVAVTREGNTWTVTVTSAGGSAGGSAGGS [r10_868_JUSTAS]	2.4 ± 0.1
SAGGSMKTITDPGNLSEEEIKKILSKFPPNTTVTIEFPDATHTVTLNPDKIEISRDPSYPNFRITITISSAG [r5_373_JUSTAS]	1.72 ± 0.1

Sequence	folding stability dG unfold [kcal/mol]
SAGGSAGGLGWGSFKLPFEFWDPANGMPMRNSINIMVIVIPPPPPKVEVEEDPDNGKKKVTYDDSAGGSAGG [r6_926_TrROS]	2.95 ± 0.46
SAGGSAGGSPIEEIVAELKVPPGTTVKFPDGSTITLNSREDLLKLAKEGYPPEKLKDITVEAVSAGGSAGGS [r12_430_JUSTAS]	0.856 ± 0.089
SAGGMLLKLPLSSVEIPPDASEEEIEEAKRKLAKPKVVKVTEEVLIEENGIVKKVKVTKYVSLSVEESAGGS [r16_387_JUSTAS]	0.87 ± 0.12
SAGGSAMKEIEINGYKVRIVKIDEKTGKITIYLYPNASEEMKEKVAELLKELGFEIEVEEVSPEELSAGGSA [r15_570_TrROS_Hall]	3.44 ± 0.16
SAGGSAGGSAMKLEVFPVPDGQIAVFEDADGNIRVIGVPEPNLSISDIAKIALDLGADSVELSAGGSAGGSA [r18_83_TrMRF]	0.155 ± 0.16
SAGGMIRITTEDGEELSEEELAELEEAIRKGDLDEAVKKIEELLRERFGKEIKIKVEVFFPPPPPPESAGGS [r8_48_TrROS_Hall]	3.59 ± 0.15
SAGGGPVTEETYTIKRPDGTELVVTRYYFPGTGETVVRIYPPSTKTPLSTVPLSEASPELLAEIARRSAGGS [r8_32_JUSTAS]	1.79 ± 0.03
SAGGSAGGSMGVTVTSEEDPEVRRVRETIETPSGSVVERDMVLTRPPDGPLLREALSEKVFRPSAGGSAGGS [r12_758_JUSTAS]	-0.582 ± 0.28
SAGGPKLFVEEDPVEDGVVVVVETNADPVALLKALEKLFGRPVKDVRFERLPDGRLIAVARIPKDALSAGGS [r16_605_TrMRF]	2.47 ± 0.045
SAGGSAGGSAGGLPDREILEVRVLNPEREETGLRVRVEVVLPDGPVTIELPAEEVKELASAGGSAGGSAGGS [r10_771_TrMRF]	0.726 ± 0.071
SAGGSMTTTTVTVTDPAGNTTTYTFPSSVPLEEIVEAVSKALGRPVTVLSVTTDPSGTTTVTLAVPGSAGGS [r8_285_JUSTAS]	5.17 ± 0.13
SAGMKYTFKILVKADSPEEAIETAKKLVEKWLKENFPELPEGVKIKEIKVEPLPDDYYLVTITVEFDPESAG [r5_320_TrMRF]	5.49 ± 0.1
SAGGSAGGSEEILKALGVEPGDEVEIEMTPEELEELLALPGVEPVRVEERPDGRLRVRIRILPSAGGSAGGS [r12_750_TrROS_Hall]	2.99 ± 0.1
SMKIEFLDVKEDGTIVIRLTLLRPDGKPPTKEEAAERAKEIAEILKPYFPDAEFTIEFDPESGEATIVIDSA [r9_485_TrMRF]	4.83 ± 0.33
SAGGSDSLVTLERVEVTELEEFEEDDRPFLVKRTYTIEKVVTTDPKTGKVTTETTVTSKEEVIPPELNSAGG [r13_810_JUSTAS]	0.874 ± 0.084
